Source: paper PMC2275076 (Nucleic Acids Research, 2007)

Biological target: the molecule itself
Experiment: SEC

B1: Methanococcus maripaludis O-phosphoseryl-tRNA:selenocysteinyl-tRNA synthase (SepSecS) (enzyme, UniProt Q6LZM9 1-436, looked up)
chain: MLDFNIEGLIPKNMEKRGELVLNEYLKEIEDVFNHRKIPENGIDDEKIKLFLKFLSMMDTDKDPKSVRIGEREARTYSKIHEELSSGFCHGIGRSGNLVDPQPKASGASIMYALTNKILESFFKQLGLNVHAIATPISTGMSISLCLSAARKKYGSNVVIYPYASHKSPIKAVSFVGMNMRLVETVLDGDRVYVPVEDIENAIKKEIELGNRPCVLSTLTFFPPRNSDDIVEIAKICENYDIPHIINGAYAIQNNYYLEKLKKAFKYRVDAVVSSSDKNLLTPIGGGLVYSTDAEFIKEISLSYPGRASATPVVNTLVSLLSMGSKNYLELVKNQKNSKKLLDELLNDLSKKTGGKFLDVESPIASCISVNSDPVEIAAKLYNLRVTGPRGIKKTDHFGNCYLGTYTHDYIVMNAAIGVRTEDIVNSVSKLEKILL
modifications: selenomethionine-labeled; PLP covalently bound via a Schiff base to Lys278
- stoichiometry N: 4
